Results taken from patent US20140090111A1, “Plant Hormone Biosensors” (Carnegie Institution of Washington, priority 2012, published 2014).
Changes are numbered by the printed parent chain. In names and notes the source's numbering stands.

B1: GID1C(S114A): GA biosensor mutant variant, mutation of a GA binding residue of GID1C (protein, UniProt Q940G6 2-344, looked up, variant S114A)
Gibberellin receptor GID1C: AGSEEVNLIESKTVVPLNTWVLISNFKLAYNLLRRPDGTFNRHLAEFLDRKVPANANPVNGVFSFDVIIDRQTNLLSRVYRPADAGTSPSITDLQNPVDGEIVPVIVFFHGGAFAHSSANSAIYDTLCRRLVGLCGAVVVSVNYRRAPENRYPCAYDDGWAVLKWVNSSSWLRSKKDSKVRIFLAGDSSGGNIVHNVAVRAVESRIDVLGNILLNPMFGGTERTESEKRLDGKYFVTVRDRDWYWRAFLPEGEDREHPACSPFGPRSKSLEGLSFPKSLVVVAGLDLIQDWQLKYAEGLKKAGQEVKLLYLEQATIGFYLLPNNNHFHTVMDEIAAFVNAECQ
modifications: within FRET biosensor
B2: GID1C P98A: GA biosensor mutant variant rendering GID interaction with DELLA constitutive; control (protein, UniProt Q940G6 2-344, looked up, variant P98A)
Gibberellin receptor GID1C: B1 Gibberellin receptor GID1C with P97A, A113S
modifications: within FRET biosensor
notes: control

Test: FRET fluorescence emission response of GA biosensors to GA
Format: binding
Details: FIG. 9
Source text: FIG. 9 depicts the fluorescence emission curves of a GA biosensor in response to GA. Also depicted are the GA responses of biosensor mutant variants. A: GA response of SMSX39L10.DR43 (RGA2 and GID1C sub-domains, L10 linker, Venus and Cerulean fluorescent proteins).
Expression and screening hormone biosensors using Saccharomyces cerevisiae as a eukaryotic host cell to better express the eukaryotic hormone binding domains. S. cerevisiae can be adapted to a high-throughput expression system. A new library of GATEWAY™ destination vectors was created for expression in yeast (Table IV, FIG. 2). Although expression of SMS in S. cerevisiae was successful as determined by fluorescence emissions, purification of sensors from the host cells was not possible because of cleavage of the hormone binding domains of the SMS proteins upon cell lysis, which can be important because the rate of transport of many plant hormones into yeast cells is low. […] SMS proteins were subsequently screened from cell lysates and after purification using metal-affinity chromatography, if the clones included an N-terminal 6HIS tag.
Subsequent experiments identified protocols for yeast cell transformation, culture and lysis, metal-affinity chromatography, and fluorescence analysis after hormone treatment in a 96-well format. Thus, a novel high-throughput platform for creation and screening of SMS had been developed. […]

| Molecule | GA affinity / GA response of biosensor |
| --- | --- |
| B1 | reduced GA affinity |
| B2 | GA non-responsive |
